From PMC10397247

Legend:
Assay in all cases: two-hybrid library CCmax;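 note: natural log of median RNA to DNA barcode read ratio; higher means stronger binding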
4H3162-AA = target: T1, 4H3162-AA
T1 chain: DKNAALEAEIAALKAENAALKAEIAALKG

4H32-AA = target: T2, 4H32-AA; details: mean of both orientations
T2 chain: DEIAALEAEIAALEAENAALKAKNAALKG

4H3378-AA = target: T3, 4H3378-AA; details: mean of both orientations
T3 chain: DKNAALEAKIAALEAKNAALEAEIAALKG

4H340-AA = target: T4, 4H340-AA; details: mean of both orientations
T4 chain: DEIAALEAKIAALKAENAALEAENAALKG

4H3413-AA = target: T5, 4H3413-AA; details: mean of both orientations
T5 chain: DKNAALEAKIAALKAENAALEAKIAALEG

4H3588-AA = target: T6, 4H3588-AA; details: mean of both orientations
T6 chain: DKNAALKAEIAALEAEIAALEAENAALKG

4H3606-AA = target: T7, 4H3606-AA; details: mean of both orientations
T7 chain: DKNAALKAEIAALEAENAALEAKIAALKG

4H3631-AA = target: T8, 4H3631-AA; details: mean of both orientations
T8 chain: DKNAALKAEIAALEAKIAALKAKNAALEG

4H3697-AA = target: T9, 4H3697-AA; details: mean of both orientations
T9 chain: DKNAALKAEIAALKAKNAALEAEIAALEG

4H3718-AA = target: T10, 4H3718-AA; details: mean of both orientations
T10 chain: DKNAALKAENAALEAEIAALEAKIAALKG

4H384-AA = target: T11, 4H384-AA; details: mean of both orientations
T11 chain: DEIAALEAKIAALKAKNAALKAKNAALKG

4H3865-AA = target: T12, 4H3865-AA; details: mean of both orientations
T12 chain: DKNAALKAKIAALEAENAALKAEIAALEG

4H697-AA = target: T13, 4H697-AA; details: mean of both orientations
T13 chain: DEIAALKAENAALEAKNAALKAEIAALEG

4H982-AA = target: T14, 4H982-AA; details: mean of both orientations
T14 chain: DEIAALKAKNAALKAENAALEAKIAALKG

4H2649-AA = target: T15, 4H2649-AA
T15 chain: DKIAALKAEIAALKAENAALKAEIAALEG

4H2698-AA = target: T16, 4H2698-AA; details: mean of both orientations
T16 chain: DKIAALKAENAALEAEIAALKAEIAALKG

4H2725-AA = target: T17, 4H2725-AA; details: mean of both orientations
T17 chain: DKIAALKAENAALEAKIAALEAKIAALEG

4H2865-AA = target: T18, 4H2865-AA; details: mean of both orientations
T18 chain: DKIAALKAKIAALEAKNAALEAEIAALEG

4H3009-AA = target: T19, 4H3009-AA; details: mean of both orientations
T19 chain: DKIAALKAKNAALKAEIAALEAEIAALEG

4H3016-AA = target: T20, 4H3016-AA; details: mean of both orientations
T20 chain: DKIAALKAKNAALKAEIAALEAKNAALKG

4H310-AA = target: T21, 4H310-AA; details: mean of both orientations
T21 chain: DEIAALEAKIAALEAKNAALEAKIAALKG

4H3120-AA = target: T22, 4H3120-AA; details: mean of both orientations
T22 chain: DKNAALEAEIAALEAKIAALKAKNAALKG

4H3130-AA = target: T23, 4H3130-AA; details: mean of both orientations
T23 chain: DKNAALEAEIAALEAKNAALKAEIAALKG

4H3165-AA = target: T24, 4H3165-AA; details: mean of both orientations
T24 chain: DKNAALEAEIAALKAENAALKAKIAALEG

4H3381-AA = target: T25, 4H3381-AA; details: mean of both orientations
T25 chain: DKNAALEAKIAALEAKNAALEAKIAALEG

4H3395-AA = target: T26, 4H3395-AA; details: mean of both orientations
T26 chain: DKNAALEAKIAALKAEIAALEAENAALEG

4H3410-AA = target: T27, 4H3410-AA; details: mean of both orientations
T27 chain: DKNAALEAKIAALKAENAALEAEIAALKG

4H3590-AA = target: T28, 4H3590-AA; details: mean of both orientations
T28 chain: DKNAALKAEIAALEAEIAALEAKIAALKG

4H3753-AA = target: T29, 4H3753-AA; details: mean of both orientations
T29 chain: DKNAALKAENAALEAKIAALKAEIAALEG

4H458-AA = target: T30, 4H458-AA; details: mean of both orientations
T30 chain: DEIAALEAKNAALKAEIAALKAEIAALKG

4H485-AA = target: T31, 4H485-AA; details: mean of both orientations
T31 chain: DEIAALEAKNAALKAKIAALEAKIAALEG

4H536-AA = target: T32, 4H536-AA; details: mean of both orientations
T32 chain: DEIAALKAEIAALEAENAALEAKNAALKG

4H570-AA = target: T33, 4H570-AA; details: mean of both orientations
T33 chain: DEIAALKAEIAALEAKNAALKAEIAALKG

4H629-AA = target: T34, 4H629-AA; details: mean of both orientations
T34 chain: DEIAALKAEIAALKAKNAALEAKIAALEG

4H710-AA = target: T35, 4H710-AA; details: mean of both orientations
T35 chain: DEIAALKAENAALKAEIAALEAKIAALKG

4H745-AA = target: T36, 4H745-AA; details: mean of both orientations
T36 chain: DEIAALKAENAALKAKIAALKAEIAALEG

4H797-AA = target: T37, 4H797-AA; details: mean of both orientations
T37 chain: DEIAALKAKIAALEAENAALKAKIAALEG

4H850-AA = target: T38, 4H850-AA; details: mean of both orientations
T38 chain: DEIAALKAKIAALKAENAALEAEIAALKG

4H891-AA = target: T39, 4H891-AA; details: mean of both orientations
T39 chain: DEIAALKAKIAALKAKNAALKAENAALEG

4H909-AA = target: T40, 4H909-AA; details: mean of both orientations
T40 chain: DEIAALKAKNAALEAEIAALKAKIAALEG

4H930-AA = target: T41, 4H930-AA; details: mean of both orientations
T41 chain: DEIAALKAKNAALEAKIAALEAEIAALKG

4H94-AA = target: T42, 4H94-AA; details: mean of both orientations
T42 chain: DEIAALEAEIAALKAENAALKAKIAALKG

4H324-AA = target: T43, 4H324-AA
T43 chain: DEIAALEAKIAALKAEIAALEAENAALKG

4H341-AA = target: T44, 4H341-AA; details: mean of both orientations
T44 chain: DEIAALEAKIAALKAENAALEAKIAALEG

4H3449-AA = target: T45, 4H3449-AA; details: mean of both orientations
T45 chain: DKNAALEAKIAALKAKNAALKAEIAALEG

4H3619-AA = target: T46, 4H3619-AA; details: mean of both orientations
T46 chain: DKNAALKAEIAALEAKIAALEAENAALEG

4H3629-AA = target: T47, 4H3629-AA; details: mean of both orientations
T47 chain: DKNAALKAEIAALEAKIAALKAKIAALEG

4H3777-AA = target: T48, 4H3777-AA; details: mean of both orientations
T48 chain: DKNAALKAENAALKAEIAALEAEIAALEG

4H380-AA = target: T49, 4H380-AA; details: mean of both orientations
T49 chain: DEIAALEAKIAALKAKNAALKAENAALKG

4H3915-AA = target: T50, 4H3915-AA; details: mean of both orientations
T50 chain: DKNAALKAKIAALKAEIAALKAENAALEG

4H3974-AA = target: T51, 4H3974-AA; details: mean of both orientations
T51 chain: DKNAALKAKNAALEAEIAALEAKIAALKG

4H432-AA = target: T52, 4H432-AA; details: mean of both orientations
T52 chain: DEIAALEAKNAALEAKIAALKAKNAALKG

4H446-AA = target: T53, 4H446-AA; details: mean of both orientations
T53 chain: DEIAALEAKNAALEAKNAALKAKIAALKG

4H63-AA = target: T54, 4H63-AA; details: mean of both orientations
T54 chain: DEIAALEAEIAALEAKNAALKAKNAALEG

DKNAALEAEIAALKAENAALKAEIAALKG [4H3162-AA] was tested, and the interaction score (4H3162-AA) was 0.942, the interaction score (4H32-AA) was -1.53 and the interaction score (4H3378-AA) was -1.59. For the same binder, the interaction score (4H340-AA) was -1.4, the interaction score (4H3413-AA) was -1.04 and the interaction score (4H3588-AA) was -1.53. The interaction score (4H3606-AA) was -0.0579, the interaction score (4H3631-AA) was -1.62 and the interaction score (4H3697-AA) was -1.2. For the same binder, the interaction score (4H3718-AA) was -1.43, the interaction score (4H384-AA) was -1.58 and the interaction score (4H3865-AA) was -0.607. For the same binder, the interaction score (4H697-AA) was -1.39 and the interaction score (4H982-AA) was -1.88.

With DKIAALKAEIAALKAENAALKAEIAALEG [4H2649-AA] the interaction score (4H2649-AA) was 0.376, the interaction score (4H2698-AA) was -1.14 and the interaction score (4H2725-AA) was 0.985. The interaction score (4H2865-AA) was -1.38, the interaction score (4H3009-AA) was -0.366 and the interaction score (4H3016-AA) was -1.64. The interaction score (4H310-AA) was -0.563, the interaction score (4H3120-AA) was -1.41 and the interaction score (4H3130-AA) was -0.528. The interaction score (4H3165-AA) was 1.07, the interaction score (4H3381-AA) was -1.34 and the interaction score (4H3395-AA) was -1.27. For the same binder, the interaction score (4H3410-AA) was -0.287, the interaction score (4H3590-AA) was -0.789 and the interaction score (4H3697-AA) was -1.81. It also gave an interaction score (4H3753-AA) of -1.64, an interaction score (4H3865-AA) of -1.59 and an interaction score (4H458-AA) of -1.33. It also gave an interaction score (4H485-AA) of -1.19, an interaction score (4H536-AA) of 0.807 and an interaction score (4H570-AA) of 1.86. The interaction score (4H629-AA) was -0.681, the interaction score (4H710-AA) was -1.42 and the interaction score (4H745-AA) was -0.16. For the same binder, the interaction score (4H797-AA) was 0.345, the interaction score (4H850-AA) was 1.99 and the interaction score (4H891-AA) was -1.86. For the same binder, the interaction score (4H909-AA) was -1.6, the interaction score (4H930-AA) was -0.569 and the interaction score (4H94-AA) was 2.21.

Work on DEIAALEAKIAALKAEIAALEAENAALKG [4H324-AA] yielded an interaction score (4H324-AA) of 1.11, an interaction score (4H341-AA) of -0.39 and an interaction score (4H3449-AA) of -1.69. The interaction score (4H3619-AA) was 1.47, the interaction score (4H3629-AA) was 1.36 and the interaction score (4H3777-AA) was -1.37. For the same binder, the interaction score (4H380-AA) was 0.833, the interaction score (4H3915-AA) was 0.128 and the interaction score (4H3974-AA) was 1.2. The interaction score (4H432-AA) was -0.834, the interaction score (4H446-AA) was -1.06 and the interaction score (4H63-AA) was -0.0237.
